Results on 2 molecules are retold here after paper PMC1277823, “nfi-1 affects behavior and life-span in C. elegans but is not essential for DNA replication or survival”.

This data set addresses hNFI-C220-H6 (human, UniProt P08651 1-220). The data set is described as follows: EMSA; ~5 ng protein; EMSA on 6.5% non-denaturing polyacrylamide gel (Fig. 2A); buffer, salt, pH and temperature not given (as in cited refs 38, 54). The following applies: protein: recombinant; tags: 6xHis; chain copies: 2.

Sequence of hNFI-C220-H6 (P08651 1-220): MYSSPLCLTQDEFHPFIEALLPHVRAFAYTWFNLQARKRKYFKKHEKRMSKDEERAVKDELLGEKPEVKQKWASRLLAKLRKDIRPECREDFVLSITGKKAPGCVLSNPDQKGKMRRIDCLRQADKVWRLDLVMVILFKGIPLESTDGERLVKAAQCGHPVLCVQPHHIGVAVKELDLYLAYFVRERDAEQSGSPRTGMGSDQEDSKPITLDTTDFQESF

B1: 2.6 (dsDNA)
DNA 1: AGGTCTGGCTTTGGGCCAAGAGCCGC
DNA 2: GCGGCTCTTGGCCCAAAGCCAGACCT
Take B1: the binding result is listed as “binds”.

B2: C2 (dsDNA)
DNA 1: AGGTCTCGCTTTGGGCCAAGAGCCGC
DNA 2: GCGGCTCTTGGCCCAAAGCGAGACCT
Turning to B2, the binding result is given as “no binding”.
